From patent US20250353926A1 come the findings set out here.

Some results are limits rather than exact numbers.

The target of the experiment is PSMA expressed on target cells (PC3pip cells, high density; 22Rv1 cells, low density) (UniProt Q04609). Kind of experiment: cell-based or functional assay.
PSMA expressed on target cells (PC3pip cells, high density; 22Rv1 cells, low density), sequence (Q04609 whole entry): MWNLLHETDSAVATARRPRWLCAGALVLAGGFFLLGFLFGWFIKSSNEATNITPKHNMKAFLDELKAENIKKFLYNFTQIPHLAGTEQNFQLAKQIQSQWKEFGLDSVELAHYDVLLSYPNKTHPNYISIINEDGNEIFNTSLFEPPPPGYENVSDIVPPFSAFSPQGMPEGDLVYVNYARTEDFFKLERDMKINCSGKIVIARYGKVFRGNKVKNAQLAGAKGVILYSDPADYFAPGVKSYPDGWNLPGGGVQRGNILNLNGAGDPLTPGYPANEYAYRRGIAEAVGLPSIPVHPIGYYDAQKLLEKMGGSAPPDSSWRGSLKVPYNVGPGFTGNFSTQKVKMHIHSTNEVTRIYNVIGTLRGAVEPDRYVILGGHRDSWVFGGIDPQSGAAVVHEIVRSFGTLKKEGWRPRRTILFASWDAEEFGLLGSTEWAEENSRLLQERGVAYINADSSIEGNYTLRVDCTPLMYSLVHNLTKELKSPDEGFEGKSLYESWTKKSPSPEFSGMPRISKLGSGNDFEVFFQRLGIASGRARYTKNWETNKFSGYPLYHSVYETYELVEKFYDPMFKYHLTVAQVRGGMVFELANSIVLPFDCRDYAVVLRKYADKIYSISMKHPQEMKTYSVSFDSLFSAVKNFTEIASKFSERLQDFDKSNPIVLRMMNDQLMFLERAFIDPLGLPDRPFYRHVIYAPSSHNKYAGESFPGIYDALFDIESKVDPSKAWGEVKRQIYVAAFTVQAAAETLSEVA

Regarding monoclonal anti-PSMA antibody, J591, the EC50; ADCC luciferase reporter assay (Jurkat CD16a V158 reporter cells), PC3pip 24 h continuous was 0.16 nM; the EC50; ADCC reporter assay, 22Rv1 4 h washout, 24 h endpoint is greater than 500 nM; the EC50; ADCC reporter assay, PC3pip 4 h washout, 24 h endpoint was 0.044 nM.
